Reference: paper PMC7729032, “Interaction interface in the C-terminal parts of centriole proteins Sas6 and Ana2” (Open Biology, 2020)

Molecular target: T1, MBP-Sas6 wild-type (Drosophila, UniProt Q9VAC8 1-472)
T1 construct: Sas6, Drosophila, wild type; MBP from destination vector pKM596 (Gateway); No cleavage of MBP is described; also called Sas6-wt; source: E. coli Rosetta(DE3); in lysate (pull-down); purified on amylose resin and SEC (SEC, HDX-MS)
T1 sequence (looked up): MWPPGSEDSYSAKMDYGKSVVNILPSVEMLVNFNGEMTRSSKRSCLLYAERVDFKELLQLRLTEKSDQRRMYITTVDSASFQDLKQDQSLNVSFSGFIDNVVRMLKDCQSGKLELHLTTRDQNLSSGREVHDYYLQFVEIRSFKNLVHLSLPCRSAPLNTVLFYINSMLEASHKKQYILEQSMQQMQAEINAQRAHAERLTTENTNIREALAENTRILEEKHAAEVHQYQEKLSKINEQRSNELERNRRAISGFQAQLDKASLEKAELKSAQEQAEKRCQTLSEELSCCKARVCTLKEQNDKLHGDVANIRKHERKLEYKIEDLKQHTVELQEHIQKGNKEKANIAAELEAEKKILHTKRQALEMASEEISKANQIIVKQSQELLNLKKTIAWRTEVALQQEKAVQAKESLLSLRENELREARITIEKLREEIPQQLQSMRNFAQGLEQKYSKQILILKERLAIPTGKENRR
Test: SEC; MBP-Ana2-4D mixed with MBP-Sas6, at least 1 h on ice, Superdex 200 10/300; 20 mM Tris–HCl pH 7.5, 150 mM NaCl, 1 mM DTT, 4°C
Conditions: both partners purified

binding result: binds
B1: MBP-Ana2-4D (natural protein, Drosophila, UniProt Q9XZ31 1-420, looked up)
chain: MFVPETEDMLPRLAPRPSAAVPMGHTNEIIGPTVPEVSILFGQPPQDPQMQPQQPNHAHQESSPRAAPTFASWKKQMLPRVNFSPILATELGPRTAPSSNSPCSSKEYQVMPRDRNYASDAQQTTNHMNCNAGGYNAEPKQQAYQSRRLSSSSNADVLTICAGTQTDPFNPSPPRKSLPQVVYSDIDVSNLANKSDLAALVSLVESVRHEQQQLRNLCEMILEQQQRAKPEAISKASSTTGTQCDILTTNQAGRRLSPIMQDYIAEEEEPLPPPQARVIPQFPSPRPHPPIAQSTGYRANTPQAKRIPQLAKPNTEKDMVMNELALKYLRQPVDELMKDMRLGASPKSPNPEPLRPIDNIGHAQDPNDIDNADYKYLKKYRLLPEEQLEPVCPQSPMAATAPSPHIQLDLENIRNQPKLL
notes: Ana2, Drosophila; STAN motif serines 318, 365, 370 and 373 substituted by aspartic acid; MBP from destination vector pKM596; As prey against Gorab bait the MBP tag follows from the general methods of the pull-down; also called Ana2-4D-FL; source: E. coli Rosetta(DE3); purified on amylose resin and SEC (SEC, HDX-MS); in lysate (pull-down prey)
